The target in this test is PSI–LHCI as found in the chloroplast PSI–LHCI dimer (one monomer unit, without PsaH, PsaO and Lhca2) (Chlamydomonas reinhardtii) (UniProt P12154). Put plainly: cryo-EM structure; heavier green band of the sucrose gradient of affinity-purified PSI cross-linked with activated Pc; 1 mg chlorophyll/ml, vitrified at 4 °C; dimer refined with C2 symmetry, monomer with C1, focused classification on the Pc region.

Consider “PSI–LHCI as found in the chloroplast PSI–LHCI dimer (one monomer unit, without PsaH, PsaO and Lhca2) (from UniProt P12154 1-751; P09144 1-735; Q39615 36-196; P12352 25-97; P12356 63-227; P14224 31-126; P14225 27-113) (complex)”, for which the stoichiometry N was 2.

For orientation: stoichiometry N means the number of molecules, sites or subunits per partner or assembly.

The values are drawn from paper PMC9579051.
